Data published in patent US20210214454A1 (SYMPHOGEN A S, published 2021).
Residue numbers refer to the chain shown, from its start.

B1: antibody 15833 (antibody, human IgG1, kappa, L234A L235A, V domains shown)
VH: QVQLVESGGGVVQPGRSLRLSCAASGFTFSNYAMHWVRQAPGKGLEWVALISFDGSYKYYADSVKGRFTISRDNSKNTLYLQMNSLRAEDTAVYYCVKDAGYSSSWFFDYWGQGTLVTVSS
VL: DIQMTQSPSSVSASVGDRVTITCRASQDISSWLAWYQQKPGKAPKLLIYAASSLQSGVPSRFSGSGSGTDFTLTISSLQPEDFGNYYCQQANSFPWTFGQGTKVEIKR
notes: Fully human IgG1-LALA / kappa
B2: antibody 17303 (antibody, human IgG1, kappa, L234A L235A, V domains shown)
VH: EVQLVESGGGLVQPGRSLRLSCAASGFTFDDHAMHWVRQAPGKGLEWVSGISWNSGSIGYAESVKGRFTISRDNAKNSLYLQMNSLRAEDTALYYCAKDRRGPFDYWGQGTLVTVSS
VL: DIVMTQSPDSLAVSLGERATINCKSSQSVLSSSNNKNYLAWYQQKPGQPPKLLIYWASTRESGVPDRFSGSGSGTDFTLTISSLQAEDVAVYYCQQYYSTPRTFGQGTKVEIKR
notes: Fully human IgG1-LALA / kappa
B3: antibody 15888 (antibody, human IgG1, kappa, L234A L235A, V domains shown)
VH: QVQLQQSGPGLVKPSQTLSLTCAISGDSVSSNSATWNWIRQSPSRGLEWLGRTYYRSKWYNDYAVSVKSRITINPDTSKNQFSLQLNSVTPEDTAVYYCARGGHSIAVAGPFDYWGQGTLVTVSS
VL: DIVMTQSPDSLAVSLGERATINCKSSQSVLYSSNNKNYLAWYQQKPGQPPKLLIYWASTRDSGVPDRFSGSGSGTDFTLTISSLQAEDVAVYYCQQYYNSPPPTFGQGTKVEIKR
notes: Fully human IgG1-LALA / kappa
B4: antibody 16154 (antibody, human IgG1, kappa, L234A L235A, V domains shown)
VH: EVQLVESGGGLVQPGGSLRLSCAASGFTFTSYWMSWVRQAPGKGLEWVANIKQDGSEKYYVDSVKGRFTISRDNAKNSLYLQMNSLRAEDTAVYYCARGPVAGPYWYFDLWGRGTLVTVSS
VL: AIQMTQSPSSLSASVGDRVTITCRASQGIRNDLGWYQQKPGKAPKLLIYAASSLQSGVPSRFSGSGSGTDFTLTISSLQPEDFATYYCLQDYHYPLTFGGGTKVEIKR
notes: Fully human IgG1-LALA / kappa
B5: antibody 15948 (antibody, human IgG1, kappa, L234A L235A, V domains shown)
VH: QVQLVESGGGVVQPGRSLRLSCAASGFTFSIYGMHWVRQAPGKGLEWVAVISYDGSNKYYADSVKGRFTISRDNSKNTLYLQMNSLRAEDTAVYYCAKDPDYYGSGSYYPDWGQGTLVTVSS
VL: DIQLTQSPSFLSASVGDRVTITCRASQGISSYLAWYQQKPGKAPKLLIYAASTLQSGVPSRFSGSGSGTEFTLTISSLQPEDFATYYCQQVKSYPLTFGGGTKVEIKR
notes: Fully human IgG1-LALA / kappa
B6: antibody 16040 (antibody, human IgG1, kappa, L234A L235A, V domains shown)
VH: QVQLVESGGGVVQPGRSLRLSCAASGFTFSIYGMHWVRQAPGKGLEWVAVISYDGSNKYYADSVKGRFTISRDNSKNTLYLQMNSLRAEDTAVYYCAAGNWFDPWGQGTLVTVSS
VL: B5 VL with V91L, K92N, S93R
notes: Fully human IgG1-LALA / kappa

Target: T1, cynomolgus CD40 extracellular domain (ECD) (cynomolgus)
T1 construct: extracellular domain; also called Cynomolgus CD40 ECD
Assay: SPR (IBIS MX96), antibody captured, monovalent CD40 ECD in solution

Question: How did the Kd turn out when B1 was run?
Answer: 1.5 nM

Question: And the koff?
Answer: 0.00012 s⁻¹

Question: What about the kon of the same binder?
Answer: 80000 M⁻¹ s⁻¹

Question: Which results are given for B2?
Answer: Kd: 9.8 nM; koff: 0.0014 s⁻¹; kon: 150000 M⁻¹ s⁻¹

Question: Which results are given for B3?
Answer: Kd: 0.44 nM; koff: 0.00014 s⁻¹; kon: 330000 M⁻¹ s⁻¹

Question: For B4, which Kd is on record?
Answer: 4.6 nM

Question: And the koff?
Answer: 0.00051 s⁻¹

Question: And the kon?
Answer: 110000 M⁻¹ s⁻¹

Question: How did the Kd turn out when B5 was run?
Answer: 57 nM

Question: And the koff?
Answer: 0.0021 s⁻¹

Question: And the kon?
Answer: 37000 M⁻¹ s⁻¹

Question: How did the Kd turn out when B6 was run?
Answer: 16 nM

Question: What about the koff of the same binder?
Answer: 0.0013 s⁻¹

Question: And the kon?
Answer: 81000 M⁻¹ s⁻¹

Target: T2, His-tagged human CD40 extracellular domain (ECD) (human, UniProt P25942 21-193)
T2 construct: Bought from Sino Biological; also called human CD40 ECD; CD40-his ECD antigen; not shown: His tag
Assay: as above

T2 sequence (P25942 21-193): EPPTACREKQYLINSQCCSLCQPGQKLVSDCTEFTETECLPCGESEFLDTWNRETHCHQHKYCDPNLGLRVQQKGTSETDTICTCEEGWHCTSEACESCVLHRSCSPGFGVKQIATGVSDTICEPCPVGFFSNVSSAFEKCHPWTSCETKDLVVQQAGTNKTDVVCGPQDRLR

Question: How did the Kd turn out when B1 was run?
Answer: 2.8 nM

Question: What about the koff of the same binder?
Answer: 0.00012 s⁻¹

Question: And the kon?
Answer: 41000 M⁻¹ s⁻¹

Question: With B2 as the binder, how does the Kd read?
Answer: 7.8 nM

Question: What about the koff of the same binder?
Answer: 0.00038 s⁻¹

Question: And the kon?
Answer: 49000 M⁻¹ s⁻¹

Question: Which results are given for B3?
Answer: Kd: 0.75 nM; koff: 0.00014 s⁻¹; kon: 190000 M⁻¹ s⁻¹

Question: Which results are given for B4?
Answer: Kd: 5.7 nM; koff: 0.00031 s⁻¹; kon: 53000 M⁻¹ s⁻¹

Question: How did the Kd turn out when B5 was run?
Answer: 3.1 nM

Question: What about the koff of the same binder?
Answer: 0.00031 s⁻¹

Question: What about the kon of the same binder?
Answer: 99000 M⁻¹ s⁻¹

Question: How did the Kd turn out when B6 was run?
Answer: 7 nM

Question: What about the koff of the same binder?
Answer: 0.00036 s⁻¹

Question: What about the kon of the same binder?
Answer: 52000 M⁻¹ s⁻¹

Target: T3, human CD40 protein expressed on cells (human, UniProt P25942 21-277)
T3 construct: also called human CD40 on CHO-S cells; CD40 of CD40-NFkB-luciferase reporter cells (Promega CD40 Bioassay kit)
Assay: flow cytometry on CHO-S cells transiently expressing human CD40; AF647 anti-human IgG (H+L) secondary; GeoMean RL1-H
Method: (§1) The anti-CD40 antibodies were incubated with hamster CHO-S cells transiently expressing human or cynomolgus CD40 for 30 minutes at 4° C. The cells were washed twice and subsequently incubated for an additional 20 minutes with AF647-conjugated secondary anti-human IgG (H+L) antibody. After the washing step, antibody binding was detected using the high-throughput flow cytometer iQue Screener PLUS (Sartorius) measuring the GeoMean of AF647 signal in each well. Every concentration was assayed in triplicate and a 12-point titration curve was generated for each antibody.

T3 sequence (P25942 21-277 limits assumed): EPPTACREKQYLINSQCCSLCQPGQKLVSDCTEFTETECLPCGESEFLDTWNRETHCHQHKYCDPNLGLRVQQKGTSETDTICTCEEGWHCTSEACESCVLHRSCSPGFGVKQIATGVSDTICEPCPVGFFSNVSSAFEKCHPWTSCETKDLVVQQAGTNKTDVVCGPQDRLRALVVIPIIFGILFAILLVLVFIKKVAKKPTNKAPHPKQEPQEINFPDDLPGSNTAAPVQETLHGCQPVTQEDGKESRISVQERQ

Question: How did the “EC50 (read off the curve)” value turn out when B1 was run?
Answer: ~0.1 µg/mL

Question: For B4, which “EC50 (read off the curve)” value is on record?
Answer: ~0.008 µg/mL

Target: T4, cynomolgus CD40 protein expressed on CHO-S cells (cynomolgus, UniProt G7PG38 21-278)
T4 construct: whole, on cells
Assay: flow cytometry on CHO-S cells transiently expressing cynomolgus CD40; AF647 anti-human IgG (H+L) secondary; GeoMean RL1-H
Method: as §1

Question: How did the “EC50 (read off the curve)” value turn out when B1 was run?
Answer: ~0.2 µg/mL

Question: Which “EC50 (read off the curve)” value does the source give for B2 here?
Answer: ~0.02 µg/mL

Question: For B3, which “EC50 (read off the curve)” value is on record?
Answer: ~0.02 µg/mL

Question: With B4 as the binder, how does the “EC50 (read off the curve)” value read?
Answer: ~0.008 µg/mL

Question: How did the “EC50 (read off the curve)” value turn out when B5 was run?
Answer: ~0.4 µg/mL
